Key:
[1] = target: Schizosaccharomyces japonicus Yop1, full length, with a C-terminal SBP tag (Schizosaccharomyces japonicus) (UniProt B6K529); experiment: SEC-MALS; in the detergent DDM; 20 mM Tris/HCl pH 7.5, 100 mM NaCl, 0.03% DDM; protein 0.2-1 mg/ml; protein conjugate model
[2] = target: Yop1F65Bpa (S. japonicus Yop1 with the photoreactive probe Bpa at F65 in TM2) (Schizosaccharomyces japonicus) (UniProt B6K529); experiment: cross-linking + SEC; Yop1F65Bpa irradiated in liposomes, then membranes solubilized in DDM and run on SEC
[3] = target: Yop1F65Bpa (S. japonicus Yop1 with the photoreactive probe Bpa at F65 in TM2) (Schizosaccharomyces japonicus) (UniProt B6K529); experiment: cross-linking; photo-cross-linking through Bpa; purified protein reconstituted into liposomes of S. cerevisiae lipid extract at a protein:lipid molar ratio of 1:200; UV for 30 min on an ice-cold block; SDS-PAGE and Coomassie-blue staining

Substance	stoichiometry N [1]	stoichiometry N [2]	percent of monomers cross-linked into dimers [3] [%]
Schizosaccharomyces japonicus Yop1, full length, with a C-terminal SBP tag (from UniProt B6K529 1-191) (natural protein)	2		
Yop1F65Bpa (S. japonicus Yop1 with the photoreactive probe Bpa at F65 in TM2) (from UniProt B6K529 1-191) (natural protein)		2	> 75
